For data set [1], the target named is His10-ΔN46-B4GALNT1 (human B4GALNT1 lumenal domain construct ΔN46) (human) (UniProt Q00973). Description: non-reducing SDS-PAGE; purified protein in SDS loading dye without or with 50 mM DTT, heated 5 min at 95 °C, NuPAGE 4-12% Bis-Tris gel, Coomassie stain; dimer seen without reducing agent.
Data set [2] concerns the molecule itself. The description is as above.

“His10-ΔN46-B4GALNT1 (human B4GALNT1 lumenal domain construct ΔN46) (from UniProt Q00973 47-533) (domain or fragment)” gave a stoichiometry N in data set [1] of 2.

B1: B4GALNT1 lumenal domain construct ΔN27 (entire lumenal domain, human) (domain or fragment)
chain: HHHHHHHHHHGTRDAPGLRLPLAPWAPPQSPRRPELPDLAPEPRYAHIPVRIKEQVVGLLAWNNCSCESSGGGLPLPFQKQVRAIDLTKAFDPAELRAASATREQEFQAFLSRSQSPADQLLIAPANSPLQYPLQGVEVQPLRSILVPGLSLQAASGQEVYQVNLTASLGTWDVAGEVTGVTLTGEGQADLTLVSPGLDQLNRQLQLVTYSSRSYQTNTADTVRFSTEGHEAAFTIRIRHPPNPRLYPPGSLPQGAQYNISALVTIATKTFLRYDRLRALITSIRRFYPTVTVVIADDSDKPERVSGPYVEHYLMPFGKGWFAGRNLAVSQVTTKYVLWVDDDFVFTARTRLERLVDVLERTPLDLVGGAVREISGFATTYRQLLSVEPGAPGLGNCLRQRRGFHHELVGFPGCVVTDGVVNFFLARTDKVREVGFDPRLSRVAHLEFFLDGLGSLRVGSCSDVVVDHASKLKLPWTSRDAGAETYARYRYPGSLDESQMAKHRLLFFKHRLQCMTSQ
modifications: N-linked glycosylation (3 predicted sites, positions not given)
As for B1, the “stoichiometry N” value in data set [2] worked out at 2.

Broadly, the stoichiometry N is a count of units in the complex or per binding partner.
